Experimental data reported in patent publication US20250295802A1, “HER3 ANTIBODY-DRUG CONJUGATE AND USE THEREOF” (DUALITY BIOLOGICS (SUZHOU) CO., LTD., priority 2022, published 2025).
Values joined by “and” are separate entries in the source; they are usually repeats but may differ in a detail not shown here. Identical values can stand only once.

Tests used:
[1] = target: T1, human HER2 expressed on SP2/0 cells (human, UniProt P04626 23-1255); test: flow cytometry (FACS) on SP2/0 cells overexpressing human HER2, PE anti-mouse secondary antibody
T1 construct: whole, on cells; also called SP2/0-HER2 cells
Description: (§1) FACS assay: the cultured cells were digested with 0.25% trypsin-EDTA and then centrifuged at 1500 rpm for 5 min. The cell pellets were regenerated into 5×10⁶ cells/mL using a PBS FACS solution containing 5% FBS and 0.2% ProClin300. 50 μL of the cell suspension was incubated with 100 μL of the primary antibody at a concentration of 1 μg/mL on ice for 1 h. The cells were washed twice with the FACS solution. The pellets were regenerated using 100 μL of a FACS solution containing goat anti-mouse IgG-PE (1:1000 dilution) and incubated on ice in the dark for 1 h. The cells were then washed twice and resuspended in 200 μL of the FACS solution.
(§2) Murine 3F8 was co-incubated with SP2/0 wild-type cells or cells overexpressing HER3, HER2 or EGFR. The binding strength was measured in a FACS instrument with a PE-anti-mouse secondary antibody.

rat HER3 [2] = target: rat HER3 (rat, UniProt Q62799 20-641, limits assumed); test: ELISA on coated antigen, luminescence readout
Sequence of rat HER3 (rat, UniProt Q62799 20-641, limits assumed) (Q62799 20-641 limits assumed): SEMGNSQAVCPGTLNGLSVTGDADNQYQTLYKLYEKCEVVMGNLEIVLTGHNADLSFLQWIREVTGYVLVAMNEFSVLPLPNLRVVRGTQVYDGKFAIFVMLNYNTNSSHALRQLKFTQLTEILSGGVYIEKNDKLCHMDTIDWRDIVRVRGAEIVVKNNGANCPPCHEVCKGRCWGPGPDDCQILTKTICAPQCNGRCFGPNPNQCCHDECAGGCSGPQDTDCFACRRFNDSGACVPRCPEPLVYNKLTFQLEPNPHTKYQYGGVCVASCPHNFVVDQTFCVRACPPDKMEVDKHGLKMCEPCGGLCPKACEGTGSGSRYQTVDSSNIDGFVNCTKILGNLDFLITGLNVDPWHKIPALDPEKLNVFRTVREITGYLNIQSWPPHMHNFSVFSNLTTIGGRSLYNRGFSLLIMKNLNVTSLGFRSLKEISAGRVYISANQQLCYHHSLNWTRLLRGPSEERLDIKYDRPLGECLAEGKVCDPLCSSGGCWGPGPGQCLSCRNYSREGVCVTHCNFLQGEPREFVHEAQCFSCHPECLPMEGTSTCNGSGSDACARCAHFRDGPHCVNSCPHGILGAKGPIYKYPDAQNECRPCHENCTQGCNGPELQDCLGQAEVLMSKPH

mouse HER3 [3] = target: mouse HER3 (mouse, UniProt Q61526 20-641, limits assumed); test: ELISA on coated antigen, luminescence readout
Sequence of mouse HER3 (mouse, UniProt Q61526 20-641, limits assumed) (Q61526 20-641 limits assumed): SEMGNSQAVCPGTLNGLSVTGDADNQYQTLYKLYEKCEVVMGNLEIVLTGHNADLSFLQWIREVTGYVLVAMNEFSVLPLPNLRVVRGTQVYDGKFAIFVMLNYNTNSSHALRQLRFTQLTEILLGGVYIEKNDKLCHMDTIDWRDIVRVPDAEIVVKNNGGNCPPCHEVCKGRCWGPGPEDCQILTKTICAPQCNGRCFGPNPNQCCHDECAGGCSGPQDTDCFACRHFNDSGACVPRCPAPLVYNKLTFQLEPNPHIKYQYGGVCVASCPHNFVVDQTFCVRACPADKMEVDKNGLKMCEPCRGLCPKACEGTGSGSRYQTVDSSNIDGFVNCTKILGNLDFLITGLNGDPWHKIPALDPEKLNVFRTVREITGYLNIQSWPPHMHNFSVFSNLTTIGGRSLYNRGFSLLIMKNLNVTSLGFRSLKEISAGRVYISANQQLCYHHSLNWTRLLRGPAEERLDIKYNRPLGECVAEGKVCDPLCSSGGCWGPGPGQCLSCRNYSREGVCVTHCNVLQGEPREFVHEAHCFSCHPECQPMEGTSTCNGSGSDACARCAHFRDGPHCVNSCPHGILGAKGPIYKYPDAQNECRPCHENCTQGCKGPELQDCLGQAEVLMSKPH

human HER3-huFc [4] = target: T2, human HER3-huFc (human, UniProt P21860 20-643); test: ELISA, antigen coated
T2 construct: also called huHER3; not shown: human Fc (huFc)
Description: (§3) ELISA assay: human HER2-ex-huFc, human HER3-huFc, and human EGFR-his were diluted to 2 μg/mL and 50 μL/well in a 96-well plate and incubated at 4° C. overnight. The plate was washed with 0.5×PBST, then incubated with 100 μL of a blocking buffer (PBS+3% BSA) at 37° C. for 2 h, and washed with 0.5×PBST. The 3F8 antibody was diluted with the blocking buffer in a 1:3 serial gradient, added at 50 μL/well, incubated at 37° C. for 40-50 min, and then washed with 0.5×PBST. […] Prior to assay, 50 μL of luminol buffer A+B was added to each well in a 1:1 mix.
(§4) EC50 of murine 3F8 binding to human HER3, HER2, and EGFR was analyzed using GraphPad Prism 6.0.

cynomolgus monkey HER3 [5] = target: cynomolgus monkey HER3 (cynomolgus monkey, UniProt G7PIG5 20-643); test: ELISA
Sequence of cynomolgus monkey HER3 (cynomolgus monkey, UniProt G7PIG5 20-643) (G7PIG5 entry or part of it): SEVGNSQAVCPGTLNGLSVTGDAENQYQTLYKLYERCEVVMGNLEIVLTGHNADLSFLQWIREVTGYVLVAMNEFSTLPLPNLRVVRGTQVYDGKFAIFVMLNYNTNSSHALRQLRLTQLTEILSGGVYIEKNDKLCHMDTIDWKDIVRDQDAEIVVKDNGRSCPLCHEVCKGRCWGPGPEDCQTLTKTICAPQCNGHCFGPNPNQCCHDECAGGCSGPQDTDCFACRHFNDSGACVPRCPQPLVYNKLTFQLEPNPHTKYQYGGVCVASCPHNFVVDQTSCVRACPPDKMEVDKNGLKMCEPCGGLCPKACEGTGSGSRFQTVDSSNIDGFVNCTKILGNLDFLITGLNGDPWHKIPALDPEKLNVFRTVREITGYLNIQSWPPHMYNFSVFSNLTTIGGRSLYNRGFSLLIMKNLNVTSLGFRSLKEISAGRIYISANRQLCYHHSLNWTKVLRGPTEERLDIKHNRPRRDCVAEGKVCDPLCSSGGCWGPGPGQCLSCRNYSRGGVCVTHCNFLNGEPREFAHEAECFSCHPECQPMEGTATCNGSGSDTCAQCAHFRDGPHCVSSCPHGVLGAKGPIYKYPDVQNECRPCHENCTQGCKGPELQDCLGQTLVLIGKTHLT

human HER3-huFc [6] = target: T2, human HER3-huFc; test: ELISA
human EGFR-his = target: T3, human EGFR-his (human, UniProt P00533 25-645); test: ELISA on coated antigen, luminescence readout
T3 construct: also called huEGFR; not shown: His tag
Description: as §3
(§5) The binding affinities of murine 3F8 to human HER3, HER2 and EGFR were determined by ELISA.

human HER2-ex-huFc = target: T4, human HER2-ex-huFc (human, UniProt P04626 23-652); test: ELISA on coated antigen, luminescence readout
T4 construct: extracellular domain; 'ex' is read as extracellular domain; also called huHER2; not shown: human Fc (huFc)
Description: as §3, §5

[7] = target: T5, human EGFR expressed on SP2/0 cells (human, UniProt P00533 25-1210); test: flow cytometry (FACS) on SP2/0 cells overexpressing human EGFR, PE anti-mouse secondary antibody
T5 construct: whole, on cells; also called SP2/0-EGFR cells
Description: as §1, §2

human HER2 = target: T6, human HER2 (Homo sapiens, UniProt P04626); test: ELISA binding to human HER2
T6 construct: human HER2-ex-huFc; human Fc (huFc)
Description: (§6) ELISA assay: human HER2-ex-huFc, human HER3-huFc, and human EGFR-his were diluted to 2 μg/mL and 50 μL/well in a 96-well plate and incubated at 4° C. overnight. The plate was washed with 0.5×PBST, then incubated with 100 μL of a blocking buffer (PBS+3% BSA) at 37° C. for 2 h, and washed with 0.5×PBST. The 3F8 antibody was diluted with the blocking buffer in a 1:3 serial gradient, added at 50 μL/well, incubated at 37° C. for 40-50 min, and then washed with 0.5×PBST. Goat anti-mouse IgG-HRP (Southern Biotech, 1030-05) was diluted at 1:20000 with the blocking buffer, added at 50 μL/well, incubated in the dark for 30 min, and then washed with 0.5×PBST. Prior to assay, 50 μL of luminol buffer A+B was added to each well in a 1:1 mix.
as §5, §4

cynomolgus monkey HER3 [8] = test: ELISA binding to cynomolgus monkey HER3; details: Table 2
Description: as §6
(§7) The species selectivity of murine 3F8 to human, monkey, rat and mouse HER3 was determined by ELISA.
(§8) EC50 of murine 3F8 binding to human, monkey, rat and mouse HER3 was analyzed using GraphPad Prism 6.0.

rat HER3 [9] = target: rat HER3 (Rattus norvegicus, UniProt Q62799); test: ELISA binding to rat HER3
Sequence of rat HER3 (Rattus norvegicus, UniProt Q62799) (Q62799 20-1339): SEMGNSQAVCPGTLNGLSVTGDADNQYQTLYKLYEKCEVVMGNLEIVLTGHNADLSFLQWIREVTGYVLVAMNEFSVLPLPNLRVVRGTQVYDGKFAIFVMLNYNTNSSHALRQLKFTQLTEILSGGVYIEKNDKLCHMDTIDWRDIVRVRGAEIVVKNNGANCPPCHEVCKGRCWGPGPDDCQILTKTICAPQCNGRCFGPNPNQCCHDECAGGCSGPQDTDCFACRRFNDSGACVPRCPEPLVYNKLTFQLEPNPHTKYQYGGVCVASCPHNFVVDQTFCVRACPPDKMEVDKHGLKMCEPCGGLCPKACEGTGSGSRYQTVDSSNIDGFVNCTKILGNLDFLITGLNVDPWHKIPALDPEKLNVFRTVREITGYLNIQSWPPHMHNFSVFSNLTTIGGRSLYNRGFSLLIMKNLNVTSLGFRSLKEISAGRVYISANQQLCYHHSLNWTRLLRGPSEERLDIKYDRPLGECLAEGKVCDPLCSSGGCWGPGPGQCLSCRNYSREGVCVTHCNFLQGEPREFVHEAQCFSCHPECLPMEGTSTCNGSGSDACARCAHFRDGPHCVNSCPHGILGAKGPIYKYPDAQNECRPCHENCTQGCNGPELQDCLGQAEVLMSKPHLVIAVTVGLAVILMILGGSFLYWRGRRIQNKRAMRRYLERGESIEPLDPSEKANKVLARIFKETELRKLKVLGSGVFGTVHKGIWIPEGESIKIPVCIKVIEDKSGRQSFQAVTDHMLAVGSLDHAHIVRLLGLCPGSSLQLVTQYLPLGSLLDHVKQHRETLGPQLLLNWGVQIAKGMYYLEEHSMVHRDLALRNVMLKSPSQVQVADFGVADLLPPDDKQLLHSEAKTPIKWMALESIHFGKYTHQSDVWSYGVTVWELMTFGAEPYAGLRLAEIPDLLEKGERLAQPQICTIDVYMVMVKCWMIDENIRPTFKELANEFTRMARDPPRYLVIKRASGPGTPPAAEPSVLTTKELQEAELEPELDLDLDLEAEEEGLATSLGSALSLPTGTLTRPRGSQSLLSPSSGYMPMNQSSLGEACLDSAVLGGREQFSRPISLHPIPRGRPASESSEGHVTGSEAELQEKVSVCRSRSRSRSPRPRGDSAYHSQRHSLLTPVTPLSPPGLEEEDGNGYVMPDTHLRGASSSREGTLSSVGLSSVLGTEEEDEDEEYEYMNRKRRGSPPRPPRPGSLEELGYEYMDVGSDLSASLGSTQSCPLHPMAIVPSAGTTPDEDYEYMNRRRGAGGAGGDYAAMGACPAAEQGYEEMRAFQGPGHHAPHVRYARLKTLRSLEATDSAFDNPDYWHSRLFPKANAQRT
Description: as §6, §7, §8

SP2/0-HER3 cells = target: T7, SP2/0-HER3 cells (Homo sapiens, UniProt P21860); test: FACS binding of murine 3F8 to SP2/0 cells overexpressing HER3; details: PE-anti-mouse secondary antibody
T7 construct: expressed in transfected cells; host or cells: SP2/0 (mouse myeloma) stably expressing human HER3
Description: (§9) Cell culture: SP2/0, SP2/0-HER3, SP2/0-HER2, SP2/O-EGFR, NCI-N87, MDA-MB-468, MDA-MB-453, 7901, HT29, MCF-7, and SK-BR-3 used in the study were purchased from ATCC and cultured using the appropriate media recommended by ATCC. SP2/0-EGFR, SP2/0-HER2, and SP2/0HER3 cells stably expressing human EGFR, HER2 and HER3 were generated in house.
as §1, with “5×10^6” for “5×10⁶”
as §2

[10] = system: NRG1-induced HER3 phosphorylation; test: NRG1-induced HER3 phosphorylation, western blot in NCI-N87, MDA-MB-468 and MDA-MB-453; type: cell-based
Description: Western blot assay: the protein separated by SDS-PAGE was transferred to a nitrocellulose membrane for Western blot. The primary antibodies used were as follows: anti-HER2 (cell signaling, Catl #: 2165S), anti-HER3 (cell signaling, Catl #: 12708), anti-p-HER3 (cell signaling, Catl #: 4791), and anti-β-actin (cell signal transduction, Catl #: 4967).
HER3 phosphorylation induced by NRG1: the cells were cultured in a 6-well plate and used for an experiment when the confluency reached 80%. On the day of the experiment, the cells were washed twice with PBS, incubated for 6 h in a serum-free medium, and then induced overnight with 10 μg/mL of the antibody. To induce HER3 phosphorylation, NRG1 was added to a working concentration of 100 ng/mL 30 min before the cells were collected for Western blot.
Murine 3F8 blocked NRG1-induced HER3 phosphorylation. NCI-N87, MDA-MB-468 and MDA-MB-453 were treated with NRG1, the HER3 ligand, to induce downstream phosphorylation of HER3.
The effect of murine 3F8 in inhibiting NRG1-induced p-HER3 was determined by western blot.

[11] = system: cells at different HER3 surface levels; test: Internalization of murine 3F8 by cells at different HER3 surface levels; type: cell-based
Description: Murine 3F8 was rapidly taken up by cells at different HER3 surface levels. The cells at different HER3 surface levels were incubated with murine 3F8 on ice (control) or incubated at 37° C. for 1 or 4 h. The internalization fraction was determined by subtracting the 37° C. incubated cell surface signal from the ice incubated control.

[12] = system: BT474 subcutaneous xenograft model; test: Tumor growth in BT474 subcutaneous xenograft model; type: in vivo, mouse; details: 25 mg/kg intravenously once every two weeks for three weeks; one-way analysis of variance p<0.05
Description: In vivo efficacy study: the animals were maintained and used according to the IACUC guidelines. BALC/b nude mice and NPG mice, purchased from Charles River and SPF Biotech, respectively, were housed at 25° C. in a 12-h dark/light cycle with free access to food and drink. A patient-derived xenograft (PDX) model was generated by subcutaneous implantation of cryopreserved tissue fragments. Animals were initiated with drug treat when the tumor size reached 100-200 mm^3 and were euthanized when the tumor size was 1000 mm^3. The health condition was monitored daily. Tumor size and body weight were monitored and recorded every 3 days.
The anti-HER3 antibody was effective in inhibiting tumor growth in the BT474 subcutaneous xenograft model. The anti-HER3 antibody 3F8, 3D4, or 3F8+3D4 combination was injected intravenously at 25 mg/kg once every two weeks for three weeks. Tumor size was monitored every 3-4 days. Both 3F8 and 3D4 are anti-HER3 antibodies. 3F8 is a murine antibody.

[13] = system: SP2/0 wild-type cells or cells overexpressing HER2 or EGFR; test: FACS binding of murine 3F8 to SP2/0 wild-type, HER2 or EGFR cells; set-up: species or system human
Description: as §9
as §1, with “5×10^6” for “5×10⁶”
as §2

human EGFR = target: T8, human EGFR (Homo sapiens, UniProt P00533); test: ELISA binding to human EGFR
T8 construct: His
Description: as §6, §5, §4

HER3 = target: T9, HER3 (Homo sapiens, UniProt P21860); test: ELISA binding to human HER3
T9 construct: human Fc (huFc)
Description: as §6, §5, §4, §7, §8

mouse HER3 [14] = target: mouse HER3 (Mus musculus, UniProt Q61526); test: ELISA binding to mouse HER3
Sequence of mouse HER3 (Mus musculus, UniProt Q61526) (Q61526 20-1339): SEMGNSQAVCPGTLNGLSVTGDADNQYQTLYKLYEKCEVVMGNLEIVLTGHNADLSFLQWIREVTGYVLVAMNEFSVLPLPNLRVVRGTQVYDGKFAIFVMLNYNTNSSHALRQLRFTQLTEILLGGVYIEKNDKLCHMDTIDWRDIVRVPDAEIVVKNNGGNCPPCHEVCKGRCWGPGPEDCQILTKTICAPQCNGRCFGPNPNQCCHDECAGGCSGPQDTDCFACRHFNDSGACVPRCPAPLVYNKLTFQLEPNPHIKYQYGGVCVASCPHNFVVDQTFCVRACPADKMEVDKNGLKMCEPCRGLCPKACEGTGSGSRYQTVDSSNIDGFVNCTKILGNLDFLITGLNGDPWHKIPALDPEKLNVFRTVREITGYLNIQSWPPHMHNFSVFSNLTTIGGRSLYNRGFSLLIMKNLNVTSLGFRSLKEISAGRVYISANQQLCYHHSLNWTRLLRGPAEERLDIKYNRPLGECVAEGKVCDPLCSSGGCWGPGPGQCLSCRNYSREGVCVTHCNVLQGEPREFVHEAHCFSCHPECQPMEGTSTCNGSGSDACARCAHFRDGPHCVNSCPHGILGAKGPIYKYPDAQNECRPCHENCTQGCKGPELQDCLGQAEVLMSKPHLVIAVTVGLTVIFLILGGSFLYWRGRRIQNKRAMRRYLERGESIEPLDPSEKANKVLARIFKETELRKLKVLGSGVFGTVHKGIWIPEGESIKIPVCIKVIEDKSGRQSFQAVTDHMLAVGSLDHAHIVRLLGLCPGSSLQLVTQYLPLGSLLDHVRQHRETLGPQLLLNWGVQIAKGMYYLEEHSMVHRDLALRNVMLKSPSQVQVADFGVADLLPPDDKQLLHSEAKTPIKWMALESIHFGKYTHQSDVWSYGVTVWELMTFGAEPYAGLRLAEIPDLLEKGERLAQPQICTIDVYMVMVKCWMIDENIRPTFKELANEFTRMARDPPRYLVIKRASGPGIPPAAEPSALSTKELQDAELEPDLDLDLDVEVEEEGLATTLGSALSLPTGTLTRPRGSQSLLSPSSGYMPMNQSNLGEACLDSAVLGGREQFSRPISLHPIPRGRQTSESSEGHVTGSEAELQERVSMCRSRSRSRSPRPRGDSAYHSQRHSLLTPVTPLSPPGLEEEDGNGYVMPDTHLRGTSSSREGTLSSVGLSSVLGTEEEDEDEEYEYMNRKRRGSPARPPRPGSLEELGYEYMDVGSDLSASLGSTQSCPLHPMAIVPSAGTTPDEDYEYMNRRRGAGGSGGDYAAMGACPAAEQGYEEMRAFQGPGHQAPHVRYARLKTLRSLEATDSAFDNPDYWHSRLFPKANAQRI
Description: as §6, §7, §8

B1: murine 3F8 antibody (antibody, V domains shown)
VH: DVQLQESGPGLVKPSQSLSLTCSVTGYSITSAYYWNWIRQFPGDKLEWMGYISYDGRNNFNPSLKNRISITRDTSKNQFFLKLNSVTSGDTATYYCARDGDYDYFDYWGQGTTLTVSS
VL: DIQMTQTTSSLSASLGDRVTISCRASQDISNYLNWYQQKPDGTFKLLIYYTSILHSGVPSRFSGSGSGTDYSLTISNLEQEDIATYFCQQGDTLPPTFGAGTKLELK
notes: Mouse hybridoma antibody, made by hybridoma or recombinantly; also called m3F8
B1: no binding [1]; no binding (tested: about 10^1.2 nM (about 15 nM)) (rat HER3 [2]); no binding (tested: about 10^1.2 nM (about 15 nM)) (mouse HER3 [3]). For the same molecule, the EC50 (human HER3-huFc [4]) was 0.11 nM and 0.0165 µg/mL, the EC50 (cynomolgus monkey HER3 [5]) was 0.185 nM and 0.0278 µg/mL and the EC50 (human HER3-huFc [6]) was 0.164 nM and 0.0245 µg/mL. B1: no binding (tested: about 10^1.2 nM (about 16 nM)) (human EGFR-his); no binding (tested: about 10^1.2 nM (about 16 nM)) (human HER2-ex-huFc); no binding [7].

B2: murine 3F8: murine anti-HER3 antibody 3F8 from hybridoma; VL SEQ ID NO: 15, VH SEQ ID NO: 16 (antibody, V domains shown)
VH: B1 VH
VL: B1 VL
B2 was tested, and the “recognition of human HER2” value (human HER2) was “did not recognize”, the “EC50 (ng/mL) Cynomolgus monkey HER3” value (cynomolgus monkey HER3 [8]) was 27.825 ng/mL and the “recognition of rat HER3” value (rat HER3 [9]) was “did not recognize”. For the same molecule, the “binding to SP2/0-HER3 cells” value (SP2/0-HER3 cells) was “specifically bound”, the HER2 protein level [10] was “no effect” and the “total HER3 protein level” value [10] was “no effect”. For the same molecule, the “phosphorylation level of HER3 protein” value ([10]; NRG1 100 ng/mL, antibody 10 μg/mL) was “reduced the phosphorylation level”, the “time within which most was taken up” value ([11]; 37° C.) was at most 1 h and the “internalization into the cell” value ([11]; 37° C. for 1 or 4 h vs ice control) was “rapidly internalized”. For the same molecule, the tumor growth [12] was “significantly inhibited the tumor growth”, the “binding to other cells” value [13] was “did not bind” and the “recognition of human EGFR” value (human EGFR) was “did not recognize”. For the same molecule, the “recognition of human HER3” value (HER3; ELISA) was “only recognized HER3”, the “EC50 (ng/mL) huHER3” value (HER3; Table 1) was 16.50 ng/mL and the “HillSlope huHER3” value (HER3; Table 1) was 1.04. For the same molecule, the “EC50 (ng/mL) Human HER3” value (HER3; Table 2) was 24.525 ng/mL, the “HillSlope Human HER3” value (HER3; Table 2) was 1.015 and the “recognition of mouse HER3” value (mouse HER3 [14]) was “did not recognize”.
